According to PMC7397094:
Like-named read-outs stand apart in the source and are kept apart here.

Tests used:
[1] = biological target: human recombinant RetGC1 (retinal membrane guanylyl cyclase 1) (human) (UniProt Q02846)
[2] = biological target: human recombinant RetGC1 (retinal membrane guanylyl cyclase 1) (human) (UniProt Q02846); remark: listed apart in the source
[3] = biological target: human recombinant RetGC1 (retinal membrane guanylyl cyclase 1) (human) (UniProt Q02846); remark: listed apart in the source
[4] = biological target: human recombinant RetGC1 (retinal membrane guanylyl cyclase 1) (human) (UniProt Q02846); remark: listed apart in the source

Sequence of UniProt Q02846 (Q02846 52-1103): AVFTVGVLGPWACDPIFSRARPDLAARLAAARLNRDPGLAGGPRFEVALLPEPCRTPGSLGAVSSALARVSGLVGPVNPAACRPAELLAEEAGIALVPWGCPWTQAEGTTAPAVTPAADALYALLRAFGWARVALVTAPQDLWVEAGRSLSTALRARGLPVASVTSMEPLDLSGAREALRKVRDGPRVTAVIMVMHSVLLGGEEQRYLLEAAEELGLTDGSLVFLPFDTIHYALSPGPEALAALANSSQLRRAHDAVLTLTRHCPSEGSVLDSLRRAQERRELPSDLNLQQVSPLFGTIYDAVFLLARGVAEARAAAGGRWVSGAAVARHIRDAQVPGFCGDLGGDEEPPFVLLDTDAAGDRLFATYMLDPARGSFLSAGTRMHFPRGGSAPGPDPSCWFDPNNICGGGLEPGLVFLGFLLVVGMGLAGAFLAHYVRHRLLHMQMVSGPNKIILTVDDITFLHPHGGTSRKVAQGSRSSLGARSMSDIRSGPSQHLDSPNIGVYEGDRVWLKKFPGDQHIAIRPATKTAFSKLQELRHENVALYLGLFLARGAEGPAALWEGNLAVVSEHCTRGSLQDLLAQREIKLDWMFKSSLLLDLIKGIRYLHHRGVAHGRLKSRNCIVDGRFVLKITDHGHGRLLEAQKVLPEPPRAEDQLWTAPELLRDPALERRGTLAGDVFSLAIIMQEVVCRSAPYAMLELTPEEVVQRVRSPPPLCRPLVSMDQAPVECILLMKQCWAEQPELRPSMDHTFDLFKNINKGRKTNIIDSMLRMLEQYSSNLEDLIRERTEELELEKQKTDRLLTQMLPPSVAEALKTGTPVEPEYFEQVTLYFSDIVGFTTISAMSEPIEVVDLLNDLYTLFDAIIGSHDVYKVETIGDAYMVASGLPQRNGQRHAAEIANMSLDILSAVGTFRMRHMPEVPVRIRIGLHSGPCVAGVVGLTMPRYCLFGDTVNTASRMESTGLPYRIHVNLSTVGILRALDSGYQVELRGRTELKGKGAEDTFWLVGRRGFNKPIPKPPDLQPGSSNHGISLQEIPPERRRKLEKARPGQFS

| Substance | RetGC1 activity left with 100 nM RD3, % of that without RD3 (1.5 uM GCAP1) [1] | IC50 of inhibition of GCAP1-activated RetGC1 activity [2] | IC50 of inhibition of GCAP1-activated RetGC1 activity [3] | IC50 of inhibition of GCAP1-activated RetGC1 activity (empirical estimate) [4] |
| --- | --- | --- | --- | --- |
| RD3 E106K (from UniProt Q7Z3Z2 1-195) (natural protein) | 17.5% | 13.5 nM |  |  |
| RD3 G94Y (from UniProt Q7Z3Z2 1-195) (natural protein) | 22.5% | 20.7 nM |  |  |
| RD3 R101A (from UniProt Q7Z3Z2 1-195) (natural protein) | 48% | 261 nM |  |  |
| RD3 R101E (from UniProt Q7Z3Z2 1-195) (natural protein) | 37.9% | 135 nM |  |  |
| RD3 W6L/W9L (from UniProt Q7Z3Z2 1-195) (natural protein) | 13.4% |  | 4.5 nM |  |
| RD3 Y60A (from UniProt Q7Z3Z2 1-195) (natural protein) | 65.3% | 630 nM |  |  |
| RD3 Y92A (from UniProt Q7Z3Z2 1-195) (natural protein) | 13.3% | 9.8 nM |  |  |
| WT RD3 (retinal degeneration-3), bacterially expressed (from UniProt Q7Z3Z2 1-195) (natural protein) | 11% | 3.6 nM |  |  |

Further lines, results first:

| RetGC1 activity left with 100 nM RD3, % of that without RD3 (1.5 uM GCAP1) [1] | IC50 of inhibition of GCAP1-activated RetGC1 activity [2] | IC50 of inhibition of GCAP1-activated RetGC1 activity [3] | IC50 of inhibition of GCAP1-activated RetGC1 activity (empirical estimate) [4] | Substance |
| --- | --- | --- | --- | --- |
| 24.1% | 26.6 nM |  |  | RD3 D59R (from UniProt Q7Z3Z2 1-195) (natural protein) |
| 13.2% | 10.6 nM |  |  | RD3 H89G (from UniProt Q7Z3Z2 1-195) (natural protein) |
| 82.8% | 882 nM |  |  | RD3 L63R (from UniProt Q7Z3Z2 1-195) (natural protein) |
| 11.7% |  | 3.4 nM |  | RD3 P146ter (from UniProt Q7Z3Z2 1-145) (domain or fragment) |
| 28.5% | 59 nM |  |  | RD3 Q102L (from UniProt Q7Z3Z2 1-195) (natural protein) |
| 27.1% | 35.5 nM |  |  | RD3 R99E (from UniProt Q7Z3Z2 1-195) (natural protein) |
| 17.7% | 11.8 nM |  |  | RD3 S61Y (from UniProt Q7Z3Z2 1-195) (natural protein) |
| 15.5% | 15.6 nM |  |  | RD3 S74R (from UniProt Q7Z3Z2 1-195) (natural protein) |
| 49.7% | 253 nM |  |  | RD3 W62A (from UniProt Q7Z3Z2 1-195) (natural protein) |
|  |  |  | > 10000 nM | RD3 W62A/L63R (from UniProt Q7Z3Z2 1-195) (natural protein) |
